In patent publication US20250320312A1 (OXITOPE PHARMA B V, published 2025):
Where a chain is given by its changes, count along the chain named. Values belong to the binder of their own block, whether it stands above or below them.

Experiments:
Experiment in all cases: scFv ELISA
BSA = BSA (UniProt P02769)
[1] = molecular target: Peptide 1: Biotin-…-[Tyr(PC)]-acid
[2] = molecular target: Peptide 5: Biotin-…-[Tyr(PC)]-acid
[3] = molecular target: T1, Peptide 8: Biotin-AEAAAKEAAAKEAAAKEAAAKAAA-Tyr-acid (N-terminal biotin; C-terminal acid)
T1 construct: Control peptide without PC
T1 peptide: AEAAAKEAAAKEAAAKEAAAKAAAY
Procedure, shortened: (§1)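 Bound scFv was read as OD450 after HRP–anti-V5 detection, TMB development and HCl stop. PPE with BSA was incubated 1 h at RT on BSA-blocked wells coated overnight at 4° C. with peptide, or on streptavidin wells loaded 1 h with biotinylated PC-peptides at 1 μg/mL.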

[4] = molecular target: T2, Peptide 4: Biotin-AGGGGSGGGGSGGGGSAAA-Tyr-acid (N-terminal biotin; C-terminal acid)
T2 construct: Control peptide without PC
T2 peptide: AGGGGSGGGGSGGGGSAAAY
Procedure, shortened: as §1

[5] = molecular target: T3, Peptide 4: Biotin-AGGGGSGGGGSGGGGSAAA-Tyr-acid (N-terminal biotin; C-terminal acid; no PC)
T3 construct: control peptide without PC
T3 peptide: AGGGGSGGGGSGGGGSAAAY
Procedure, shortened: as §1

[6] = molecular target: T4, Peptide 8: Biotin-AEAAAKEAAAKEAAAKEAAAKAAA-Tyr-acid (N-terminal biotin; C-terminal acid; no PC)
T4 construct: control peptide without PC
T4 peptide: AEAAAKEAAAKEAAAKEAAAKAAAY
Procedure, shortened: as §1

Chain of BSA (P02769 25-607 limits assumed): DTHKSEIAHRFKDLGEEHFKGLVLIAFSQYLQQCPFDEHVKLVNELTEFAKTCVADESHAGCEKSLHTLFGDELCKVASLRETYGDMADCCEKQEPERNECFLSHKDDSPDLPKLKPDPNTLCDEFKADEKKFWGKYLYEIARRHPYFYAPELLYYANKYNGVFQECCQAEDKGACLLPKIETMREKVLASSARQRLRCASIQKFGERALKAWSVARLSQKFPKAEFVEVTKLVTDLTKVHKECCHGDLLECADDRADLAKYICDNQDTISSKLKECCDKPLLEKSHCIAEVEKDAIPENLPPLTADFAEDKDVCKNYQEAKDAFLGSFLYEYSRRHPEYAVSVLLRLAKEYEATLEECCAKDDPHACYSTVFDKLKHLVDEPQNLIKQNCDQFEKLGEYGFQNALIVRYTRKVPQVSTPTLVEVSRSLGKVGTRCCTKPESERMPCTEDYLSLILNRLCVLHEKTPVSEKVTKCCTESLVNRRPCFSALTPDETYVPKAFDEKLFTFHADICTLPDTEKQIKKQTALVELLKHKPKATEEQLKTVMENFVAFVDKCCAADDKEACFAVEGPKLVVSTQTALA

OD450 (BSA): 0.07 OD450
OD450 [1]: 0.76 OD450
OD450 [2]: 0.97 OD450
OD450 [3]: 0.05 OD450
OD450 [4]: 0.06 OD450
B1: PcOxP_DB04_F05 (scFv, V domains shown)
VH: EVQLLESGGGLVQPGGSLRLSCAASGFTFSDYYMEWVRQAPGKGLEWVAASRNKANDYTTEYADSVKGRFTISRDNSKNTLYLQMNSLRAEDTAVYYCARDYYGSSYWYFDVWGQGTLVTVSS
VL: DIVMTQSPDSLAVSLGERATINCTASESLYSSNHKVHYLAWYQQKPGQPPKLLIYGVSNRYIGVPDRFSGSGSGTDFTLTISSLQAEDVAVYYCAQFYSYPLTFGGGTKVEIK
notes: scFv in periplasmic extract

OD450 (BSA): 0.09 OD450
OD450 [1]: 0.67 OD450
OD450 [2]: 1.03 OD450
OD450 [3]: 0.05 OD450
OD450 [4]: 0.06 OD450
B4: PcOxP_DB04_E05 (scFv, V domains shown)
VH: B1 VH with F27N, Y32F, D57Y
VL: B1 VL with N33K, V57A
notes: scFv in periplasmic extract

OD450 (BSA): 0.09 OD450
OD450 [1]: 0.63 OD450
OD450 [2]: 1.39 OD450
OD450 [3]: 0.09 OD450
OD450 [4]: 0.07 OD450
B5: PcOxP_DB04_G01 (scFv, V domains shown)
VH: B1 VH with A55W, G104L
VL: B1 VL with T24K, E27Q, L29V, Y30L, N33K, H34N, K35N, H37N, V57A, S99Q
notes: scFv in periplasmic extract

OD450 (BSA): 0.07 OD450
OD450 [1]: 1.04 OD450
OD450 [2]: 1.59 OD450
OD450 [3]: 0.05 OD450
OD450 [4]: 0.04 OD450
B6: PcOxP_DB04_E06 (scFv, V domains shown)
VH: B1 VH with F29G, Y32F, S106P
VL: B1 VL with N33K, V57A
notes: scFv in periplasmic extract

OD450 (BSA): 0.07 OD450
OD450 [1]: 1.39 OD450
OD450 [2]: 1.67 OD450
OD450 [3]: 0.05 OD450
OD450 [4]: 0.05 OD450
B7: PcOxP_DB04_G08 (scFv, V domains shown)
VH: B1 VH with F29G, Y32F
VL: B1 VL with N33K, V57A, I62Q, S99W
notes: scFv in periplasmic extract

OD450 (BSA): 0.09 OD450
OD450 [1]: 1.39 OD450
OD450 [2]: 2.01 OD450
OD450 [3]: 0.05 OD450
OD450 [4]: 0.06 OD450
B12: PcOxP_DB04_E08 (scFv, V domains shown)
VH: B1 VH with F29S, Y32F, M34L, A55W
VL: B1 VL with N33K
notes: scFv in periplasmic extract

Second part, the binder before the results:

B2: PcOxP_DB04_A09 (scFv, V domains shown)
VH: B1 VH with A55W
VL: DIQMTQSPSSLSASVGDRVTITCTAEESLYSSKHKVHYLAWYQQKPGKAPKLLIYGASNLYSGVPSRFSGSGSGTDFTLTISSLQPEDFATYYCAQFYSYPLTFGGGTKVEIK
notes: scFv in periplasmic extract
OD450 (BSA): 0.12 OD450
OD450 [1]: 1.16 OD450
OD450 [2]: 1.96 OD450
OD450 [5]: 0.06 OD450
OD450 [6]: 0.06 OD450

B3: PcOxP_DB04_C03 (scFv, V domains shown)
VH: B1 VH with F29T, Y32F, D57S
VL: B2 VL with E26S, N59S, S99E
notes: scFv in periplasmic extract
OD450 (BSA): 0.1 OD450
OD450 [1]: 1.34 OD450
OD450 [2]: 1.87 OD450
OD450 [5]: 0.06 OD450
OD450 [6]: 0.06 OD450

B8: PcOxP_DB04_D09 (scFv, V domains shown)
VH: B1 VH with F29D, Y32F
VL: B1 VL with T24K, A25S, N33K, H34N, V57A, I62S
notes: scFv in periplasmic extract
OD450 (BSA): 0.06 OD450
OD450 [1]: 0.41 OD450
OD450 [2]: 0.83 OD450
OD450 [3]: 0.08 OD450
OD450 [4]: 0.05 OD450

B9: PcOxP_DB03_H08 (scFv, V domains shown)
VH: B1 VH with F27G, Y32F, D57T
VL: B2 VL with E26S, A57S, L60R, S62I, S99Q
notes: scFv in periplasmic extract
OD450 (BSA): 0.12 OD450
OD450 [1]: 0.91 OD450
OD450 [2]: 1.18 OD450
OD450 [5]: 0.06 OD450
OD450 [6]: 0.06 OD450

B10: PcOxP_DB04_D08 (scFv, V domains shown)
VH: B1 VH with Y32H
VL: B2 VL with E26S, L60R, Y61A, S62I, S99T
notes: scFv in periplasmic extract
OD450 (BSA): 0.12 OD450
OD450 [1]: 1.6 OD450
OD450 [2]: 1.96 OD450
OD450 [5]: 0.07 OD450
OD450 [6]: 0.07 OD450

B11: PcOxP_DB04_D12 (scFv, V domains shown)
VH: B1 VH with Y32Q, Y58W
VL: B1 VL with N33K, V57A
notes: scFv in periplasmic extract
OD450 (BSA): 0.08 OD450
OD450 [1]: 0.64 OD450
OD450 [2]: 1.03 OD450
OD450 [3]: 0.05 OD450
OD450 [4]: 0.06 OD450

B13: PcOxP_DB04_A07 (scFv, V domains shown)
VH: B1 VH with F29Q, Y32F
VL: B2 VL with E26S, A57I, L60R, S62I
notes: scFv in periplasmic extract
OD450 (BSA): 0.09 OD450
OD450 [1]: 1.54 OD450
OD450 [2]: 2.11 OD450
OD450 [5]: 0.05 OD450
OD450 [6]: 0.05 OD450

B14: PcOxP_DB03_G10 (scFv, V domains shown)
VH: B1 VH with Y32A
VL: B2 VL with E26S, L60R, Y61Q, S62I, S99T
notes: scFv in periplasmic extract
OD450 (BSA): 0.11 OD450
OD450 [1]: 1.8 OD450
OD450 [2]: 1.21 OD450
OD450 [5]: 0.05 OD450
OD450 [6]: 0.05 OD450

B15: PcOxP_DB03_H09 (scFv, V domains shown)
VH: B1 VH with Y32A, D57S
VL: B2 VL with E26S, L60R, S62I, Q96E
notes: scFv in periplasmic extract
OD450 (BSA): 0.11 OD450
OD450 [1]: 0.93 OD450
OD450 [2]: 1.25 OD450
OD450 [5]: 0.06 OD450
OD450 [6]: 0.06 OD450
